We go through one molecule from patent US20130177528A1, “COMPOSITIONS AND METHODS FOR INHIBITING VIRAL INFECTION” (WESTERN UNIVERSITY OF HEALTH SCIENCES, priority 2011, published 2013).

In the experiment the test system is CMV Ad169. The experiment can be described thus: CMV plaque assay in RPE cells (Example 5). The format is cell-based, Cytomegalovirus. Particulars: virus pre-incubated with 1 mg/ml for 120 min, MOI 0.01, 3 days. The procedure:
Viral plaque assay. Confluent layers of RPE cells in glass bottom dishes were infected with CMV Ad169 strain in the presence and absence of CN at 0.01 PFU per cell for 2 hrs. This was followed by extensive but gentle washing three times with DMEM media followed by feeding cells with DMEM media. The cells were then incubated at 37° C. for thee days. Cells were then fixed using fixative buffer after 3 days for 30-45 min. The cells were washed three times with 1X PBS before RPE cells stained for Giemsa satin for additional 45 minutes. This was followed by 10 times washing with 1 X PBS to remove excess stain. The number of plaques formed were then visualized and quantified as indicated. In another protocol, confluent layers of HeLa cells (approximately 10^6) in six-well dishes were infected with HSV-1 (804) strain at 0.01 PFU/celI in presence and absence of CN for 2 h at 37° C. After removal of inoculum, monolayers were overlaid with DMEM comaining 2.5% heat-inactivated calf serum and incubated at 37° C. At 24 h, the cells were fixed by using fixative buffer (2% formaldehyde and 0.2% glutaradehyde) at room temperature for 20 min, followed by Giemsa staining for 45 min. The cells were again washed 5× in PBS and the numbers of plaques were counted. The images were taken by using Nikon D-Eclipse-C1 microscope (Nikon Instruments Inc., Melville, N.Y., USA).
A wild type strain of CMV Ad169 was used. The virus was again either pre-incubated with 1×PBS (control) or with CN at 1 mg/ml for 120 min at room temperature. After 120 min of incubation the two pools of viruses were incubated on target retinal pigment epithelial (RPE) cells at MOI (multiplicity of infection; MOI) of 0.01 for additional 2 hrs at 37° C. This was followed by washing to remove unbound viruses and feeding cells with fresh DMEM media. The plates were kept for 3 days before the plaque formation was visually observed (upper panels) and quantified (lower panel) after fixing cells with buffer (FIG. 9). […] Based on visual evidence, the plaque formation was quantified in each group and was scored (lower panel).

B1: contortrostatin (protein)
chain: DAPANPCCDAATCKLTTGSQCADGLCCDQCKFMKEGTVCRRARGDDLDDYCNGISAGCPRNPFHA
Turning to B1, the “CMV cytopathic effect (CPE)” value is “significantly lower cytopathic effect”, the CMV plaque formation entry was “significantly reduced the plaque formation” and the “size of CMV plaques” value is on record as “small compared to untreated CMV virions”.
